According to paper PMC5481773, “Structural insights into the function of ZRANB3 in replication stress response” (Nature Communications, 2017):

Legend:
[1] = NADH-coupled ATPase assay of ZRANB3 proteins; assay type: biochemical; conditions: 150 nM ZRANB3, 5 mM ATP, 0.5 μM flap DNA, 24 °C, average rates
Method: The NADH-coupled ATPase assay is based on a reaction in which the regeneration of hydrolysed ATP is coupled to the oxidation of NADH[59]. It was used as described, with minor modifications. ZRANB3 (150 nM) was added to a 150 μl reaction containing 25 mM Tris-Cl pH 7.5, 13 mM MgCl2, 1.8 mM DTT, 100 μg ml^−1 BSA, 3 mM phosphoenolpyruvate, 36 U ml^−1 pyruvate kinase, 20 U ml^−1 lactate dehydrogenase, 0.5 μM flap DNA, and 5 mM ATP, with 750 μM NADH added immediately before ZRANB3. Reactions were mixed for 1 min on a shaker at 23 °C and analysed by measuring A340 nm at 20 s intervals during 60 min, on a Spectramax 250 microplate spectrophotometer at 24 °C. Linear titration of freshly prepared NADH was performed to obtain a standard curve for units of absorbance mM^−1 NADH. ATPase rates were calculated from data collected between time points where product formation was linear with respect to time.

U2OS cells = assay: Colocalization of YFP-ZRANB3 foci with endogenous PCNA; assay type: cell-based; conditions: average of three experiments
Description: Figure 5 PCNA-dependent recruitment of ZRANB3. (a) Recruitment of FEN1 to the sites of laser induced DNA damage is abrogated by the mutations in the PIP box (Q337A, F343A and F344A). U2OS cells were transiently transfected with the indicated YFP constructs and analysed by live-cell imaging. Shown are representative images at the indicated time points post damage. (b) Recruitment of the YFP-tagged PIP box and APIM motif to the sites of laser induced DNA damage. Recruitment is abrogated by the mutations of the conserved residues in the PIP box and the APIM motif. […] The percentage of cells containing ZRANB3 foci that colocalize with PCNA was determined. […]
U2OS cells (ATCC) were seeded onto glass coverslips and transfected with the YFP constructs using Lipofectamine 2000 (Life Technologies). […] The coverslips were mounted in ProLong Gold anti-fade reagent with DAPI (Life Technologies) and analysed by confocal microscopy.
For the recruitment of ZRANB3 to stalled replication forks, U2OS cells were seeded onto glass coverslips and transfected with YFP-ZRANB3 constructs. […] Finally, the samples were analysed by confocal microscopy. For each experiment, more than 100 cells were counted, and the results from three independent transfections were pooled for statistical analyses.

B1: WT ZRANB3: full-length human ZRANB3, recombinant; YFP-tagged in the cell assay (protein)
chain: MPRVHNIKKSLTPHISCVTNESDNLLDFLPDRLRAKLLPFQKDGIIFALKRNGRCMVADEMGLGKTIQAIGITYFYKEEWPLLIVVPSSLRYPWTEEIEKWIPELSPEEINVIQNKTDVRRMSTSKVTVLGYGLLTADAKTLIDALNNQNFKVVIVDESHYMKSRNATRSRILLPIVQKARRAILLTGTPALGRPEELFMQIEALFPQKFGRWTDYAKRYCNAHIRYFGKRPQWDCRGASNLNELHQLLSDIMIRRLKTEVLTQLPPKVRQRIPFDLPSAAAKELNTSFEEWEKIMRTPNSGAMETVMGLITRMFKQTAIAKAGAVKDYIKMMLQNDSLKFLVFAHHLSMLQACTEAVIENKTRYIRIDGSVSSSERIHLVNQFQKDPDTRVAILSIQAAGQGLTFTAASHVVFAELYWDPGHIKQAEDRAHRIGQCSSVNIHYLIANGTLDTLMWGMLNRKAQVTGSTLNGRKEKIQAEEGDKEKWDFLQFAEAWTPNDSSEELRKEALFTHFEKEKQHDIRSFFVPQPKKRQLMTSCDESKRFREENTVVSSDPTKTAARDIIDYESDVEPETKRLKLAASEDHCSPSEETPSQSKQIRTPLVESVQEAKAQLTTPAFPVEGWQCSLCTYINNSELPYCEMCETPQGSAVMQIDSLNHIQDKNEKDDSQKDTSKKVQTISDCEKQALAQSEPGQLADSKEETPKIEKEDGLTSQPGNEQWKSSDTLPVYDTLMFCASRNTDRIHIYTKDGKQMSCNFIPLDIKLDLWEDLPASFQLKQYRSLILRFVREWSSLTAMKQRIIRKSGQLFCSPILALEEITKQQTKQNCTKRYITKEDVAVASMDKVKNVGGHVRLITKESRPRDPFTKKLLEDGACVPFLNPYTVQADLTVKPSTSKGYLQAVDNEGNPLCLRCQQPTCQTKQACKANSWDSRFCSLKCQEEFWIRSNNSYLRAKVFETEHGVCQLCNVNAQELFLRLRDAPKSQRKNLLYATWTSKLPLEQLNEMIRNPGEGHFWQVDHIKPVYGGGGQCSLDNLQTLCTVCHKERTARQAKERSQVRRQSLASKHGSDITRFLVKK
modifications: left off: His6, N-terminal, cleaved
notes: full-length human ZRANB3, recombinant; YFP-tagged in the cell assay
Which ATP hydrolysis rate ([1]; A340 nm) does the source give for B1 here?
Its ATP hydrolysis rate is 16.59 ± 0.34 µmol/L/min.

What about the k [1] of the same molecule?
Its k is 110.65 ± 2.27 min⁻¹.

What about the “cells that formed ZRANB3 foci (colocalizing with PCNA)” value (U2OS cells; U2OS cells transfected with YFP-ZRANB3, UV 40 J m^−2, 6 h recovery) of the same molecule?
The value was > 95%.

What about the “cells that formed ZRANB3 foci (colocalizing with PCNA)” value (U2OS cells; U2OS cells transfected with YFP-ZRANB3, undamaged conditions) of the same molecule?
Its value is ~20%.
